For experiment [1], the target named is T1, Streptavidin (SA蛋白), Pierce, 21125 (UniProt P22629 37-163, limits assumed).
T1 construct: Control antigen in the specificity ELISA; also called Strepavidin
Briefly: phage ELISA.

The target in experiment [2] is T2, Biotinylated Human GDF15 Protein (Primary Amine Labeling), KACTUS, GDF-HM215B (human, UniProt Q99988 197-308, biotinylated (primary amine labeling)).
T2 construct: Bought protein; also called human GDF15-bio-hFc; humanGDF15-bio-hFc; not shown: hFc tag
T2 sequence (looked up): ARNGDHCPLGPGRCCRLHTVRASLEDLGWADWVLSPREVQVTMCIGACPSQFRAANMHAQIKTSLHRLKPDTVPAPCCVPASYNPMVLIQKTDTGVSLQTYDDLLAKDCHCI
Description: phage ELISA. On the technique in general: ELISA stands for enzyme-linked immunosorbent assay.

The target of experiment [3] is T3, Human Latent GDF-2/BMP-9 Protein, His tag, Acro, GD2-H52H3 (human, UniProt Q9UK05 23-429).
T3 construct: Bought protein, latent form; not shown: His tag
T3 sequence (looked up): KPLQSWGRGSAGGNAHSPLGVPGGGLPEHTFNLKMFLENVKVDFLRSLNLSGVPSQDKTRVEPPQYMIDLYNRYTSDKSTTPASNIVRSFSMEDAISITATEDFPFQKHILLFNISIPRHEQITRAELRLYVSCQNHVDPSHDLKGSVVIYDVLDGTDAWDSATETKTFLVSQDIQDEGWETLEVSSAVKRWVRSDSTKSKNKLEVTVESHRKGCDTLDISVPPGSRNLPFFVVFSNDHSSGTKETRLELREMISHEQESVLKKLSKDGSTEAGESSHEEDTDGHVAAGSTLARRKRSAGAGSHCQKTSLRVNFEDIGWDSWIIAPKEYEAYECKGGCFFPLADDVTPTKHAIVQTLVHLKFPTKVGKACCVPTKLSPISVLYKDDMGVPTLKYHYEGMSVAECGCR
Description: phage ELISA.

Experiment [4] concerns the target T4, Biotinylated CD39 Protein, hFc Tag, KACTUS, CD9-HM239B (UniProt P49961 38-478, biotinylated).
T4 construct: Control antigen; also called CD39-bio-hFc; 负淘选抗原; not shown: hFc tag
T4 sequence (looked up): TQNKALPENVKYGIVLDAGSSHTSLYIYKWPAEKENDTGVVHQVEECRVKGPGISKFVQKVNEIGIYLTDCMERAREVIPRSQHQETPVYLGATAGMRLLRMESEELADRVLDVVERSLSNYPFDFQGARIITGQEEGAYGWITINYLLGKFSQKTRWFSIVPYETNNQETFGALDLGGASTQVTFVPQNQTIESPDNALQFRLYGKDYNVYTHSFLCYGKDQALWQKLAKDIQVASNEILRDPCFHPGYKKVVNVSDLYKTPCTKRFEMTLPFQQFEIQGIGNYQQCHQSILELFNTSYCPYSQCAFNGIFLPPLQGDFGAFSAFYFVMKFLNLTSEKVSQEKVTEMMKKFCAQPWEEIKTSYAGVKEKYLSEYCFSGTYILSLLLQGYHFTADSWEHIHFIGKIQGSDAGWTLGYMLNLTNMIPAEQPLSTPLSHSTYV
Briefly: phage ELISA.

Experiment [5] deals with T5, GDF15 hFc tag, KACTUS, GDF-HM215 (UniProt Q99988 197-308).
T5 construct: also called GDF15蛋白; not shown: hFc tag
T5 sequence (looked up): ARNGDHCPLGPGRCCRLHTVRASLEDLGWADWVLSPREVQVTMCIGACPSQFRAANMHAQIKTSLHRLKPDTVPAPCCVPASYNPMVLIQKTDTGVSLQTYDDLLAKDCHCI
Briefly: competition ELISA: GDF15 hFc coated, antibody titrated against GFRAL His tag (competitor), anti-His HRP.

T1 sequence (P22629 37-163 limits assumed): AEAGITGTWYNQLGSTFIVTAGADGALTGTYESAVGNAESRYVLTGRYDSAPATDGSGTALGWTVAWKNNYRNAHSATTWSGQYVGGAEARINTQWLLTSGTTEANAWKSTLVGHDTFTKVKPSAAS

B1: Clone 68 (噬菌体单克隆) (other)
VH: QVQLVQSGAEVKKPGASVKVSCKASGYTFTNYGINWVRQAPGQGLEWMGWISAYNGYTDYAQKLQGRVSMTTDTSTSTVYMELRSLRSDDTAVYYCARDDAINGGDYWGQGTLVTVSS
VL: not shown
For B1, the binding result in experiment [1] is “no binding”; in experiment [2], “binds”; in experiment [3], “no binding”; in experiment [4], “no binding”.

B2: Clone 68 抗GDF15 IgG (human IgG4) (Fc fusion)
chain: QVQLVQSGAEVKKPGASVKVSCKASGYTFTNYGINWVRQAPGQGLEWMGWISAYNGYTDYAQKLQGRVSMTTDTSTSTVYMELRSLRSDDTAVYYCARDDAINGGDYWGQGTLVTVSSTSGGGGSGGGGSGGGGSELSYVLTQPPSASGTPGQRVTISCSGSSSNIGINTVNWYQQLPGTAPKLLIYINNQRPSGVPDRFSGSKSGTSASLAISGLQSEDEADYYCAAWDDSLNAYVFGSGTKVTVL
notes: also called GDF15 mAb; not shown: human IgG4 Fc
In general, EC50 refers to the concentration giving half of the maximal effect. Low readings indicate higher potency in that assay, high ones lower potency in that assay. In experiment [5], B2 yielded an EC50 of 1.4 nM.

For the origin of these results see CN116444667A (SHANGHAI IASO BIOTECH CO LTD, dated 2023).
